Among the data in publication PMC7556403 are Kd values, retold here.

Data set [1] addresses MBP-APO1 mXT (aggregated form) M46A;R48S;I80T;W121A;L173A;W199A;F205A;del1-14 (human) (UniProt P41238). In words: EMSA. Particulars: no A1CF; aggregated form; weaker than WT; 50 nM nucleic acid, 20 mM HEPES, 50 mM NaCl, 5 mM DTT, 10% glycerol (0.4 U RNase inhibitor for RNA), pH not stated for EMSA (HEPES pH 7.5 in protein buffers) ….
In data set [2] the target is MBP-APO1 mXT (dimeric form) M46A;R48S;I80T;W121A;L173A;W199A;F205A;del1-14 (human) (UniProt P41238). In words: EMSA. Particulars: no A1CF; dimeric form; 50 nM nucleic acid, 20 mM HEPES, 50 mM NaCl, 5 mM DTT, 10% glycerol (0.4 U RNase inhibitor for RNA), pH not stated for EMSA (HEPES pH 7.5 in protein buffers) ….

Take “GGAUAUAUGAUACAAUUUGAUCAGUAUAUUAAAGAUAGUUAUGAUUUACAUGAUU [APOB RNA 55 nt]”: the Kd in data set [1] amounted to 460 nM; in data set [2], 140 nM.
